Assay results taken from patent US20220380456A1 (UNITED KINGDOM RESEARCH AND INNOVATION, published 2022).

T1: His6-TEV-MSP1D1 (CA15914) (human Apo A-I derived, engineered, biotinylated with EZ-link NHS-Biotin for the BLI experiment only)
T1 construct: Membrane scaffold protein; The entry holds the 6xHis tag, the TEV cleavage site and MSP1D1; Tested in Apo-state (lipid free) and in Nanodisc-state (POPC nanodisc, two MSP1D1 per nanodisc)
T1 chain: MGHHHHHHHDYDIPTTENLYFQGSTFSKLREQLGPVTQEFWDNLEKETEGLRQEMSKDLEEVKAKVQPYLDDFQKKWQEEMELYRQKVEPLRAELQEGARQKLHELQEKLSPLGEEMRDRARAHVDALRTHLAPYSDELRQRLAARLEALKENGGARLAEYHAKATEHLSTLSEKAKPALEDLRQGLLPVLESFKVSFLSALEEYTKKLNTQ

T2: MSP1E3D1 (human Apo A-I derived, engineered)
T2 construct: also called MSP1E1D3 MSP variant
T2 chain: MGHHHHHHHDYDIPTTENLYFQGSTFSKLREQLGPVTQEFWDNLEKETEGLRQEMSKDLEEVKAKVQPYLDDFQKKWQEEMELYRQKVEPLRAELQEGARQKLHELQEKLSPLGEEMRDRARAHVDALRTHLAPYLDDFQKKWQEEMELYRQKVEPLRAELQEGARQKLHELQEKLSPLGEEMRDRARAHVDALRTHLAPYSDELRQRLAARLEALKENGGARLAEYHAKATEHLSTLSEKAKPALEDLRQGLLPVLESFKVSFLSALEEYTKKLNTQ

B1: MegaBody MbNb25^c7HopQ against GABAAR-β3 (other)
chain: QVQLVESGGGLVQTKTTTSVIDTTNDAQNLLTQAQTIVNTLKDYCPILIAKSSSSNGGTNNANTPSWQTAGGGKNSCATFGAEFSAASDMINNAQKIVQETQQLSANQPKNITQPHNLNLNSPSSLTALAQKMLKNAQSQAEILKLANQVESDFNKLSSGHLKDYIGKCDASAISSANMTMQNQKNNWGNGCAGVEETQSLLKTSAADFNNQTPQINQAQNLANTLIQELGNNTYEQLSRLLTNDNGTNSKTSAQAINQAVNNLNERAKTLAGGTTNSPAYQATLLALRSVLGLWNSMGYAVICGGYTKSPGENNQKDFHYTDENGNGTTINCGGSTNSNGTHSYNGTNTLKADKNVSLSIEQYEKIHEAYQILSKALKQAGLAPLNSKGEKLEAHVTTSKYGSLRLSCAASGHTFNYPIMGWFRQAPGKEREFVGAISWSGGSTSYADSVKDRFTISRDNAKNTVYLEMNNLKPEDTAVYYCAAKGRYSGGLYYPTNYDYWGQGTQVTVSSHHHHHHEPEA
notes: MegaBody derived from Nb25 with the c7HopQ scaffold
B2: MbNbB1^c7HopQ MegaBody (CA15908) (other)
chain: QVQLVESGGGLVQTKTTTSVIDTTNDAQNLLTQAQTIVNTLKDYCPILIAKSSSSNGGTNNANTPSWQTAGGGKNSCATFGAEFSAASDMINNAQKIVQETQQLSANQPKNITQPHNLNLNSPSSLTALAQKMLKNAQSQAEILKLANQVESDFNKLSSGHLKDYIGKCDASAISSANMTMQNQKNNWGNGCAGVEETQSLLKTSAADFNNQTPQINQAQNLANTLIQELGNNTYEQLSRLLTNDNGTNSKTSAQAINQAVNNLNERAKTLAGGTTNSPAYQATLLALRSVLGLWNSMGYAVICGGYTKSPGENNQKDFHYTDENGNGTTINCGGSTNSNGTHSYNGTNTLKADKNVSLSIEQYEKIHEAYQILSKALKQAGLAPLNSKGEKLEAHVTTSKYGSLRLSCTASGFSLSSSYMDWVRQAPGKGIEWVSTISPGGRITYAVSVEGRFTLSRDNAKNTLSLQMNELKPEDTAVYYCRRLGEKGQGTQVTVSSHHHHHHEPEA
notes: MegaBody: c7HopQ scaffold inserted in the first β-turn of Nanobody MP1521_B1; Entry includes 6xHis and EPEA tags
B3: MbNbE1^c7HopQ MegaBody (CA15909) (other)
chain: QVQLVESGGGLVQTKTTTSVIDTTNDAQNLLTQAQTIVNTLKDYCPILIAKSSSSNGGTNNANTPSWQTAGGGKNSCATFGAEFSAASDMINNAQKIVQETQQLSANQPKNITQPHNLNLNSPSSLTALAQKMLKNAQSQAEILKLANQVESDFNKLSSGHLKDYIGKCDASAISSANMTMQNQKNNWGNGCAGVEETQSLLKTSAADFNNQTPQINQAQNLANTLIQELGNNTYEQLSRLLTNDNGTNSKTSAQAINQAVNNLNERAKTLAGGTTNSPAYQATLLALRSVLGLWNSMGYAVICGGYTKSPGENNQKDFHYTDENGNGTTINCGGSTNSNGTHSYNGTNTLKADKNVSLSIEQYEKIHEAYQILSKALKQAGLAPLNSKGEKLEAHVTTSKYGSLRLSCAASGTITRSPTMSWARQAPGRQREWVTSILGTGRTDYADSVKGRFTISRDNANNTVYLQMNNLKPEDSAVYYCYTVLNGRPSWGQGTQVTVSSHHHHHHEPEA
notes: MegaBody: c7HopQ scaffold inserted in the first β-turn of Nanobody MP1521_E1; Entry includes 6xHis and EPEA tags
B4: MP1522_A12 Nanobody (CA15885) (VHH)
VHH: QVQLVESGGGLVQAGGSLRLSCAASGRTFSSYNMAWFRQVPGKEREFVASIARTGSGTYYRDSVKGRFTISRDNAKNTVYLQMNSLKPQDTAVYYCTAGGSLATISDYWGQGTQVTVSS
notes: Entry includes 6xHis and EPEA tags; tested as periplasmic extract
B5: MP1522_B7 Nanobody (CA15886) (VHH)
VHH: QVQLVESGGGLVQAGGSLRLSCAASGRSFSSYGMGWFRQAPGKEREFAAGITGTAGITYYTDSVKGRFTISRDNAKNTVYLQMNNLKPEDTAVYYCAAGLTSYAGRGAAGYDYWGQGTQVTVSS
notes: as for B4
B6: MP1521_G9 Nanobody (CA15884) (VHH)
VHH: QVQLVESGGGSVQAGGSLRLSCAASGRTFSTYRMGWFRQAPGKEREFVAGWNSINIYYADSVKGRFTISGDNAKSTVYLQMNSLKPEDTAVYYCAARGLGQTEYNYWGQGTQVTVSS
notes: as for B4
B7: MP1521_B9 Nanobody (CA15883) (VHH)
VHH: QVQLVESGGGLVQAGGSLRLSCAASGRTLCSIPMGWFRQAPGKEREFVAAIRWSGGSTYYADSVKGRFSISKDNAKNTVYLQMNNLKPEDTATYYCASAAPYSSWSRGLEYDYWGQGTQVTVSS
notes: as for B4
B8: MP1522_B9 Nanobody (CA15888) (VHH)
VHH: QVQLVESGGGLVQAGGSLRLSCVRSARTFGSVAMGWFRQAPGKEREFVTAIDWSGSNTLYADSVKGRFTISRDNAKNTVYLQMNSLKPDDTAVYYCAASRRVVVTTSDFDSWGQGTQVTVSS
notes: as for B4
B9: MP1521_E4 Nanobody (CA15889) (VHH)
VHH: QVQLVESGGGLVQAGGSLRLSCAASGRTFGSTFMGWFRQAPGKERDFVASITWNRGLTTYADSVKGRFTISRDSAKNTVDLQMNNLKPEDTAVYYCVLGMGTSFASWGQGTQVTVSS
notes: as for B4
B10: MP1521_H5 Nanobody (CA15890) (VHH)
VHH: QVQLVESGGGLVQPGGSLKLSCAASGFTFSTYSMSWVRQAPGKGLEWVSRILTDGGTTSYPDSVKGRFTISRDNAKNTLYLQMNNLKPEDTAVYYCARGWPSDGYSGGYRGQGTQVTVSS
notes: as for B4
B11: MP1522_C10 Nanobody (CA15891) (VHH)
VHH: QVQLVESGGGLVQAGGSLRLACAASGRTSGSYAIGWFRQAPGKEREFAAAISFTAGVTYYSNSVKGRFTISRDSAKNTAYLQMNTLKPEDTAVYYCATLPSLVLILTAKPNIGYWGQGTQVTVSS
notes: as for B4
B12: MP1522_A5 Nanobody (CA15892) (VHH)
VHH: QVQLVESGGGLVQPGGSLRLSCAASGFAFSNSYMSWVRQAPGKGPEWVSSISPSAWIITHGDSVKGRFTISRDNAKNTLYLQMNHLKPEDAALYYCARRQGYDGYVPSRDYWGQGTQVTVSS
notes: as for B4
B13: MP1521_B4 Nanobody (CA15893) (VHH)
VHH: QVQLVESGGGLVQPGGSLRLSCAASKSFFNIYDLAWYRQAPGKQRELVASITKVGSTNYADSVKGRFTTSRDNAKKTVYLQMNSLKPEDTAVYYCNLVSPGGVYNYWGQGTQVTVSS
notes: as for B4
B14: MP1521_F3 Nanobody (CA15894) (VHH)
VHH: QVQLVESGGGLVQPGGSLRLSCAASGSGFGPNVMGWYRQAPGKRRELVATINRIGNINYGDSVKGRFTLSREIAVNTVYLQMNSLKPEDAANYYCYAAKYGVDYWGKGTQVTVSS
notes: Entry includes 6xHis and EPEA tags; tested as periplasmic extract; also called Nb F3
B15: MP1521_B1 Nanobody (CA15895) (VHH)
VHH: QVQLVESGGGLVQPGGSLRLSCTASGFSLSSSYMDWVRQAPGKGIEWVSTISPGGRITYAVSVEGRFTLSRDNAKNTLSLQMNELKPEDTAVYYCRRLGEKGQGTQVTVSS
notes: as for B4
B16: MP1521_E1 Nanobody (CA15896) (VHH)
VHH: QVQLVESGGGLVQPGGSLRLSCAASGTITRSPTMSWARQAPGRQREWVTSILGTGRTDYADSVKGRFTISRDNANNTVYLQMNNLKPEDSAVYYCYTVLNGRPSWGQGTQVTVSS
notes: as for B4

Target: T1, His6-TEV-MSP1D1 (CA15914)
Assay: ELISA, purified MegaBody 200 nM on coated MSP (1 µg/mL in 100 µL, Apo- and Nanodisc-state), EPEA-tag detection, OD405 after 1 h

Binder | binding result
B1 | no binding (tested: 200 nM)

Target: T3, His6-TEV-MSP2N2 (CA15915) (human Apo A-I derived, engineered, UniProt P02647 79-267, limits assumed)
T3 construct: Membrane scaffold protein; The entry holds the 6xHis tag, the TEV cleavage site and MSP2N2; Tested in Apo-state, in Nanodisc-state, and as the belt of nanodiscs loaded with GABAAR-β3
Assay: as above

Binder | binding result
B1 | no binding (tested: 200 nM)

Target: T2, MSP1E3D1
Assay: ELISA on coated MSP variants, n=3

Binder | binding result
B1 | no binding

Target: T1, His6-TEV-MSP1D1 (CA15914)
Assay: ELISA, purified MegaBody on coated MSP (Apo- or Nanodisc-state) vs non-coated wells, A405

Binder | fold ELISA signal over no MSP [fold]
B2 | ≥ 4
B3 | ≥ 4

Target: T3, His6-TEV-MSP2N2 (CA15915)
Assay: as above

Binder | fold ELISA signal over no MSP [fold]
B2 | ≥ 4
B3 | ≥ 4

Target: T1, His6-TEV-MSP1D1 (CA15914)
Assay: ELISA, periplasmic extract on coated MSP (1 µg/mL in 100 µL, Apo- and Nanodisc-state), EPEA-tag detection, OD405 after overnight
Experimental: (§1) Nanobodies were detected after 1 h (FIG. 2A) and overnight (FIG. 2B) subsequent incubation with a biotinylated CaptureSelect antibody and developed with a Streptavidin Alkaline Phosphatase conjugate.

Binder | binding result
B4 | binds
B5 | binds

Target: T3, His6-TEV-MSP2N2 (CA15915)
Assay: as above
Experimental: as §1

Binder | binding result
B6 | binds
B4 | binds
B5 | binds

Target: T1, His6-TEV-MSP1D1 (CA15914)
Assay: ELISA, periplasmic extract on coated MSP (1 µg/mL in 100 µL, Apo- and Nanodisc-state), EPEA-tag detection, OD405 after 1 h
Experimental: as §1

Binder | binding result
B7 | binds
B8 | binds
B9 | binds
B10 | binds
B11 | binds
B12 | binds
B13 | binds
B14 | binds
B15 | binds
B16 | binds
B6 | binds

Target: T3, His6-TEV-MSP2N2 (CA15915)
Assay: as above
Experimental: as §1

Binder | binding result
B7 | binds
B8 | binds
B9 | binds
B10 | binds
B11 | binds
B12 | binds
B13 | binds
B14 | binds
B15 | binds
B16 | binds
